In publication PMC12641570, “Surface‐modified protein crowders influence mutant huntingtin exon 1 aggregation via crowding effects, crowder association, and crowder solution stability” (Protein Science : A Publication of the Protein Society, 2025):

Target: T1, bovine serum albumin cationized by reaction with ethylenediamine, net surface charge +78e (BSA +78e) (bovine, UniProt P02769 25-607, reacted with ethylenediamine; net surface charge +78e (±3e))
T1 construct: bovine serum albumin (BSA), 66 kDa protein; Chemically surface-modified; DLS radius is 16 nm, from which the authors infer oligomers; also called positive BSA (+78e); cationized BSA; source: BSA modified by reaction with ethylenediamine (published procedure); chemicals bought: Sigma‐Aldrich unless mentioned otherwise
Assay: MST; NanoTemper Monolith; about 10 μM mHttex1‐VC (target, mCherry fluorescence read) with different concentrations of BSA (ligand); within 1 h after cleaving MBP; apparent
Settings: both partners purified

Kd: > 1 mM
B1: mutant huntingtin exon 1 (45Q) fused to mVenus/mCherry (mHttex1‐VC), after cleavage of MBP (domain or fragment)
chain: MATLEKLMKAFESLKSFQQQQQQQQQQQQQQQQQQQQQQQQQQQQQQQQQQQQQQQQQQQQQPPPPPPPPPPPQLPQPPPQAQPLLPQPQPPPPPPPPPPGPAVAEEPLHRP
